Reference: patent US11981935B2, “7β-hydroxysteroid dehydrogenase mutants and process for the preparation of ursodeoxycholic acid” (PharmaZell GmbH, priority 2010, dated 2024)
Entries after “also recorded” stand apart in the source; their conditions may differ.

Legend:
[1] = molecular target: 7β-HSDH from Collinsella aerofaciens DSM 3979 (Collinsella aerofaciens, UniProt A4ECA9); assay type: biochemical
7β-HSDH = 7β-HSDH (Collinsella aerofaciens, UniProt A4ECA9); test: Photometric identification of 7β-HSDH activity (production example 1); assay type: biochemical, Collinsella aerofaciens ATCC 25986; conditions: 0.1 mM test substance, potassium phosphate buffer 50 mM pH 8, in the presence of NADP+ or NADPH
Description: For identification of 7β-HSDH activity, the activity was investigated by a photometric method. In a 1 ml cuvette, enzyme and 0.1 mM of test substance (UDCA) were mixed in potassium phosphate buffer (50 mM, pH8).

[2] = Kinetic constants of FDH (mutant D221G) at pH 6, 7 and 8; assay type: biochemical, Mycobacterium vaccae
[3] = substrate: NC(=O)C1=CN([C@@H]2O[C@H](COP(=O)(O)OP(=O)(O)OC[C@H]3O[C@@H](n4cnc5c(N)ncnc54)[C@H](OP(=O)(O)O)[C@@H]3O)[C@@H](O)[C@H]2O)C=CC1; test: purified protein, by the assay type; conditions: other: pH 8, 25° C.
[4] = substrate: NC(=O)c1ccc[n+]([C@@H]2O[C@H](COP(=O)([O-])OP(=O)(O)OC[C@H]3O[C@@H](n4cnc5c(N)ncnc54)[C@H](OP(=O)(O)O)[C@@H]3O)[C@@H](O)[C@H]2O)c1; test: purified protein, by the assay type; conditions: other: pH 8, 25° C.
[5] = Photometric activity of 7β-HSDH variants with NADPH or NADH (production example 7); assay type: biochemical, Collinsella aerofaciens; conditions: for Specific activity NADH / Volumetric activity NADH: cofactor NADH; for Specific activity NADPH / Volumetric activity NADPH: cofactor NADPH
[6] = substrate: C[C@H](CCC(=O)O)[C@H]1CC[C@H]2[C@@H]3C(=O)C[C@@H]4CC(=O)CC[C@]4(C)[C@H]3CC(=O)[C@]12C; test: Enzyme-kinetic investigation of the 7β-HSDH mutants; assay type: biochemical, Collinsella aerofaciens; conditions: other: 0.5 mM NADH
Source text: Altogether, the 7β-HSDH mutants G39D, G39D/R40L, G39D/R40I and G39D/R40V were produced. The G39D mutant is produced by Quickchange mutagenesis, and the other mutants are produced by the PCR method of Sanchis et al. (Sanchis J, Fernández L, Carballeira J D, Drone J, Gumulya Y, Höbenreich H, Kahakeaw D, Kille S, Lohmer R, Peyralans J J, Podtetenieff J, Prasad S, Soni P, Taglieber A, Wu S, Zilly F E, Reetz M T. Improved PCR method for the creation of saturation mutagenesis libraries in directed evolution: application to difficult-to-amplify templates. Appl Microbiol Biotechnol. 2008 November; 81(2): 387-97). The following primers were used for the mutagenesis, with the bases shown in italics coding in each case for the exchanged amino acid:
The mutants prepared are evaluated by means of enzyme-kinetic investigations, the results of which are shown as graphs in FIG. 11. […] The need to increase the cofactor concentration in the enzyme-kinetic investigation of the 7β-HSDH mutants is due to the increased semisaturation concentrations for the cofactor NADH in the mutants. From the plots of substrate concentration versus specific enzyme activity, the characteristic curves of Michaelis-Menten kinetics can be seen for the 7β-HSDH mutants, whereas the curve of Michaelis-Menten kinetics with substrate inhibition can be seen from the plot for the unmodified wild-type 7β-HSDH. Accordingly, the classical Michaelis-Menten model (equation 1) was used for evaluating the measurement series of the 7β-HSDH mutants and the Michaelis-Menten model with substrate inhibition was used for the measurement series of the unmodified wild-type 7β-HSDH (equation 2).
[formula] • EAx: specific enzyme activity, U mg^−1=μmol min^−1 mg^−1 • vmax: maximum specific enzyme activity, U mg^−1=μmol min^−1 mg^−1 • cS: substrate or cofactor concentration, mol L^−1 • Km: semisaturation concentration, mol L^−1
The following table gives enzyme-kinetic parameters of the unmodified wild-type 7β-HSDH and the mutants thereof with altered cofactor specificity. NADPH is used as cofactor for the wild type, whereas NADH is used as cofactor for the mutants.

In the case of `NC(=O)C1=CN([C@@H]2O[C@H](COP(=O)(O)OP(=O)(O)OC[C@H]3O[C@@H](n4cnc5c(N)ncnc54)[C@H](OP(=O)(O)O)[C@@H]3O)[C@@H](O)[C@H]2O)C=CC1` [NADPH], the kcat [1] is reported as 1033.44 1 μmol/(μmol × min).

With `C[C@H](CCC(=O)O)[C@H]1CC[C@H]2[C@@H]3[C@@H](O)C[C@@H]4C[C@H](O)CC[C@]4(C)[C@H]3CC[C@]12C` [UDCA, Ursodeoxycholic acid] the Vmax [1] was 38.17 U/mg protein, the kcat [1] was 1179.39 1 μmol/(μmol × min) and the “activity of 7β-HSDH against the test substance” value (“activity of 7β-HSDH” below) (7β-HSDH) was 60 U/ml.

For `C[C@H](CCC(=O)O)[C@H]1CC[C@H]2[C@@H]3C(=O)C[C@@H]4C[C@H](O)CC[C@]4(C)[C@H]3CC[C@]12C` [7-Keto-LCA, 7-Keto-lithocholic acid], the “activity of 7β-HSDH” value (7β-HSDH) was 35 U/ml.

In the case of `NC(=O)c1ccc[n+]([C@@H]2O[C@H](COP(=O)([O-])OP(=O)(O)OC[C@H]3O[C@@H](n4cnc5c(N)ncnc54)[C@H](OP(=O)(O)O)[C@@H]3O)[C@@H](O)[C@H]2O)c1` [NADP^+], the kcat [1] is reported as 944.95 1 μmol/(μmol × min) and the Km ([1]; pH 8) is reported as 5.32 µM.

In the case of `C[C@H](CCC(=O)O)[C@H]1CC[C@H]2[C@@H]3[C@H](O)C[C@@H]4C[C@H](O)CC[C@]4(C)[C@H]3C[C@H](O)[C@]12C` [CA, Cholic acid], the “activity of 7β-HSDH” value (7β-HSDH) is reported as “no activity; also recorded: not detectable”.

B1: FDH: formate dehydrogenase from Mycobacterium vaccae N10, mutant D221G, utilizes both NAD+ and NADP+ (protein)
chain: MAKVLCVLYDDPVDGYPKTYARDDLPKIDHYPGGQILPTPKAIDFTPGQLLGSVSGELGLREYLESNGHTLVVTSDKDGPDSVFERELVDADVVISQPFWPAYLTPERIAKAKNLKLALTAGIGSDHVDLQSAIDRNVTVAEVTYCNSISVAEHVVMMILSLVRNYLPSHEWARKGGWNIADCVSHAYDLEAMHVGTVAAGRIGLAVLRRLAPFDVHLHYTGRHRLPESVEKELNLTWHATREDMYPVCDVVTLNCPLHPETEHMINDETLKLFKRGAYIVNTARGKLCDRDAVARALESGRLAGYAGDVWFPQPAPKDHPWRTMPYNGMTPHISGTTLTAQARYAAGTREILECFFEGRPIRDEYLIVQGGALAGTGAHSYSKGNATGGSEEAAKFKKAV
modifications: CDS (1)..(1203)
B1 gave a Specific activity ([2]; pH 6, NAD+) of 4.6 U × mg^−1, a Specific activity ([2]; pH 6, NADP+) of 1 U × mg^−1 and a Specific activity ([2]; pH 7, NAD+) of 5.1 U × mg^−1. It also gave a Specific activity ([2]; pH 7, NADP+) of 1.2 U × mg^−1, a Specific activity ([2]; pH 8, NAD+) of 4.7 U × mg^−1 and a Specific activity ([2]; pH 8, NADP+) of 1 U × mg^−1.

B2: 7β-HSDH from Collinsella aerofaciens DSM 3979 (ATCC 25986), wild type, SEQ ID NO:2 (Collinsella aerofaciens ATCC 25986) (protein)
chain: MNLREKYGEWGLILGATEGVGKAFCEKIAAGGMNVVMVGRREEKLNVLAGEIRETYGVETKVVRADFSQPGAAETVFAATEGLDMGFMSYVACLHSFGKIQDTPWEKHEAMINVNVVTFLKCFHHYMRIFAAQDRGAVINVSSMTGISSSPWNGQYGAGKAFILKMTEAVACECEGTGVDVEVITLGTTLTPSLLSNLPGGPQGEAVMKIALTPEECVDEAFEKLGKELSVIAGQRNKDSVHDWKANHTEDEYIRYMGSFYRD
With B2 the Km [3] was 4.50 µM, the Vmax [3] was 33.4 µmol/min/mg and the kcat [3] was 1033.44 μmol/(μmol × min). For the same molecule, the Km [4] was 5.32 µM, the Vmax [4] was 30.6 µmol/min/mg and the kcat [4] was 944.95 μmol/(μmol × min).

B3: G39D R40I: 7β-HSDH double mutant G39D/R40I, SEQ ID NO:39 (protein)
chain: MNLREKYGEWGLILGATEGVGKAFCEKIAAGGMNVVMVDIREEKLNVLAGEIRETYGVETKVVRADFSQPGAAETVFAATEGLDMGFMSYVACLHSFGKIQDTPWEKHEAMINVNVVTFLKCFHHYMRIFAAQDRGAVINVSSMTGISSSPWNGQYGAGKAFILKMTEAVACECEGTGVDVEVITLGTTLTPSLLSNLPGGPQGEAVMKIALTPEECVDEAFEKLGKELSVIAGQRNKDSVHDWKANHTEDEYIRYMGSFYRD
With B3 the “Specific activity NADH” value [5] was 0.8 U/mg, the “Volumetric activity NADH” value [5] was 21 U/ml and the “Specific activity NADPH” value [5] was 0 U/mg. The “Volumetric activity NADPH” value [5] was 0 U/ml.

B4: Collinsella aerofaciens 7β-HSDH mutant G39D R40V, SEQ ID NO:40 (parent SEQ ID NO:2) (Collinsella aerofaciens ATCC 25986; G39D/R40V) (protein)
chain: MNLREKYGEWGLILGATEGVGKAFCEKIAAGGMNVVMVDVREEKLNVLAGEIRETYGVETKVVRADFSQPGAAETVFAATEGLDMGFMSYVACLHSFGKIQDTPWEKHEAMINVNVVTFLKCFHHYMRIFAAQDRGAVINVSSMTGISSSPWNGQYGAGKAFILKMTEAVACECEGTGVDVEVITLGTTLTPSLLSNLPGGPQGEAVMKIALTPEECVDEAFEKLGKELSVIAGQRNKDSVHDWKANHTEDEYIRYMGSFYRD
notes: made in house
In the case of B4, the Km [6] is reported as 880 ± 20 µM and the Vmax [6] is reported as 2.69 µmol/min/mg.

B5: Collinsella aerofaciens 7β-HSDH mutant G39D, SEQ ID NO:37 (parent SEQ ID NO:2) (Collinsella aerofaciens ATCC 25986; G39D) (protein)
chain: MNLREKYGEWGLILGATEGVGKAFCEKIAAGGMNVVMVDRREEKLNVLAGEIRETYGVETKVVRADFSQPGAAETVFAATEGLDMGFMSYVACLHSFGKIQDTPWEKHEAMINVNVVTFLKCFHHYMRIFAAQDRGAVINVSSMTGISSSPWNGQYGAGKAFILKMTEAVACECEGTGVDVEVITLGTTLTPSLLSNLPGGPQGEAVMKIALTPEECVDEAFEKLGKELSVIAGQRNKDSVHDWKANHTEDEYIRYMGSFYRD
notes: made in house
For B5, the Km [6] was 660 ± 120 µM, the Vmax [6] was 2.9 µmol/min/mg and the “Specific activity NADH” value [5] was 0.1 U/mg. The “Volumetric activity NADH” value [5] was 2 U/ml, the “Specific activity NADPH” value [5] was 5.1 U/mg and the “Volumetric activity NADPH” value [5] was 119 U/ml.

B6: Collinsella aerofaciens 7β-HSDH mutant G39D R40L, SEQ ID NO:38 (parent SEQ ID NO:2) (Collinsella aerofaciens ATCC 25986; G39D/R40L) (protein)
chain: MNLREKYGEWGLILGATEGVGKAFCEKIAAGGMNVVMVDLREEKLNVLAGEIRETYGVETKVVRADFSQPGAAETVFAATEGLDMGFMSYVACLHSFGKIQDTPWEKHEAMINVNVVTFLKCFHHYMRIFAAQDRGAVINVSSMTGISSSPWNGQYGAGKAFILKMTEAVACECEGTGVDVEVITLGTTLTPSLLSNLPGGPQGEAVMKIALTPEECVDEAFEKLGKELSVIAGQRNKDSVHDWKANHTEDEYIRYMGSFYRD
notes: made in house
Work on B6 yielded a Km [6] of 560 ± 80 µM and a Vmax [6] of 1.6 µmol/min/mg.

B7: Collinsella aerofaciens 7β-HSDH mutant G39D R40I, SEQ ID NO:39 (parent SEQ ID NO:2) (Collinsella aerofaciens ATCC 25986; G39D/R40I) (protein)
chain: MNLREKYGEWGLILGATEGVGKAFCEKIAAGGMNVVMVDIREEKLNVLAGEIRETYGVETKVVRADFSQPGAAETVFAATEGLDMGFMSYVACLHSFGKIQDTPWEKHEAMINVNVVTFLKCFHHYMRIFAAQDRGAVINVSSMTGISSSPWNGQYGAGKAFILKMTEAVACECEGTGVDVEVITLGTTLTPSLLSNLPGGPQGEAVMKIALTPEECVDEAFEKLGKELSVIAGQRNKDSVHDWKANHTEDEYIRYMGSFYRD
notes: made in house
B7 showed a Km [6] of 920 ± 170 µM and a Vmax [6] of 4.64 µmol/min/mg.
